# Fewer inactive variants are shown than the library holds.
# B1: TPR 5TU (parent)
# chain: GGAUCUUCUCGAUCUAACAAAAAAGACAAAUCUGCCACAAAGCUUGAGAGCAUCUUCGGAUGCAGAGGCGGCAGCCUUCGGUGGCGCGAUAGCGCCAACGUUCUCAACUAUGACACGCAAAACGCGUGCUCCGUUGAAUGGAGUUUAUCAUG
# Variants of: B1
# Test: polymerase ribozyme fitness, log enrichment relative to wild type (log ratio); higher = more active; in vitro selection for triplet polymerase activity
# Method in brief: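 For each subunit of a heterodimeric triplet polymerase ribozyme, a mutant library was built by PCR and transcribed, then taken through a single in vitro selection round in triplicate. Selection involved annealing to a biotinylated primer, the partner subunit and triplets, incubation frozen at −7 °C, gel excision of extended constructs, capture on streptavidin beads and RT-PCR. Genotypes were retained after Illumina sequencing of inputs and outputs only with ≥10 input reads and ≥1 read in each output. Fitness is defined as the logarithm of a genotype's enrichment relative to wild-type enrichment, using inverse-variance-weighted averages across replicates, with the logarithm taken to base 2.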
row,Variant,polymerase ribozyme fitness (log ratio)
1,A16G C27G G70C C87U A119U G133C G143A,≤ -4.2
2,U15G A73C G84U C96A C103G A110G A137C,≤ -4.2
3,A17C A29U C72U G81C G140U,≤ -4.2
4,A16C A24C G50C C85U G143U,≤ -4.2
5,C14U C35G C75U C76G C95U,-3.81
6,U15C A21G A24U U53A,0.983
7,A16G C36G,-4.12
8,U15A C18G C27U U55A G86A C96G U104A A150G,≤ -4.2
9,A16U A26C C54A A119C G133C U135A,≤ -4.2
10,A17C A30C,-3.82
11,A16U U45C C123A,-2.97
12,U15C A24C C93U G128U G140A U144C,≤ -4.2
13,A16G A23U A29G A47C G50A C87G A106U U135C A147U,≤ -4.2
14,A17C G141U,1.61
15,C14U G74C A107G,≤ -4.2
16,A17C A40U U55A A60U A66C C85G C116G G141C A147U,≤ -4.2
17,A16U A20C A41U C87G A98G,≤ -4.2
18,C14U C116G G128A C129G U135G,≤ -4.2
19,A16U G94A,-2.47
20,A17G A19U,0.00969
21,U15A G50A U109G A110G,≤ -4.2
22,U15G C129A,-2.55
23,A16C C35U G80A G94A C118U,-3.33
24,A16U A37C C63U C95U A119U A122U,-3.13

row,Variant,polymerase ribozyme fitness (log ratio)
1,U15A A17U C57G G88U A91C U111C C129A U134G U148C,≤ -4.2
2,A16U A20C G83C C96A A107G,≤ -4.2
3,A16U A37U C79A C99U U139A A142U,≤ -4.2
4,U15G A24U A60G G92U,0.475
5,U15G C38U C87U U104A,-1.04
6,A17C A23U A40C G86U,≤ -4.2
7,A17C U31A G92U A98U G141A,0.253
8,U15A U31A G83U C103G U139A,≤ -4.2
9,A16G A19U C93A,-3.75
10,U15G G59U U135G,-3.96
11,U15C A17G C35G U56A G117C,-4.19
12,U15A C27G A30U G68A A89U C95G A98U,≤ -4.2
13,U15G C79G,-3.38
14,A17C C76U C93G U102G C105A,≤ -4.2
15,C14U G141U,0.0902
16,U15C A37U G46U G84U U148C,≤ -4.2
17,A16C A20G C27U A60G G117A,-3.38
18,A16G A17U A52C A91U C93U U111G C123U G124U G133A,≤ -4.2
19,A17G,0.0905
20,A17C,0.315
21,A16U C85U U144C,-2.3
22,U15G U55A,-0.257
23,A17C U55A G68A A73G C85U U127A G141U,≤ -4.2
24,A17C G25C A41U C51A G84C G94U A110G U144C U146G,≤ -4.2

row,Variant,polymerase ribozyme fitness (log ratio)
1,U15C U56A C79A G80U C96U C103A A107C U146A,≤ -4.2
2,A16U A20U U146A,-3.95
3,C14U G140A,≤ -4.2
4,C14U G48U A52U A138C A142C U148G,≤ -4.2
5,U15A C38U C54U C95G G141A,-1.16
6,C14U G84A,-1.56
7,U15G A16C A21U A26C C103U,-3.98
8,A16C G83C U146G U148C C149A,≤ -4.2
9,A16G A110G,-3.77
10,C14U C72U C76U C96A G112U,≤ -4.2
11,C14U A39C G71C C85U A97G,≤ -4.2
12,A16G C18A A26G C38U G42C G81A C87A C116A,≤ -4.2
13,A16C A41C C57G G59C U135A,-3.85
14,A17C C85U,0.349
15,U15G A22G U56G C96U A121U,-0.722
16,U15A G83U,-0.19
17,U15G C95U U104G U144A,-0.599
18,U15G C57G C93A C99G,-4.06
19,U15C A28G U146C,≤ -4.2
20,C14U U53G,-3.01
21,A16C U33A C54A C85A A91G C125G G133U,≤ -4.2
22,U15G A39U C43U G50C G94A,≤ -4.2
23,U15A G59A A60U C79U C87A,≤ -4.2
24,U15G A41U A73G,-1.57

row,Variant,polymerase ribozyme fitness (log ratio)
1,A16G A40C A119C U127C,-3.55
2,A16U C43U C87U U104G A107G C118A,≤ -4.2
3,A17C C76U G92U C129A,-3.05
4,A17C G50U U56A G58C G84U,-1.22
5,A16C A66U A122C U139A A142U,≤ -4.2
6,A16U U53A A66G C87A,≤ -4.2
7,A16G A52G C57U A73C C85U C96G,≤ -4.2
8,C14U A41U A60C A66U G80A C85U C103U,≤ -4.2
9,C14U G92C G136A,-2.51
10,U15A G59A A60G C69A A121C G140A,-3.82
11,U15C G74C G94C,-4.1
12,A17C C18U C43U A97G U148A,≤ -4.2
13,U15G A23G G50C C51G C63G C96G,≤ -4.2
14,A16G A22U C85G G92A C93G C108G A113U G117C,≤ -4.2
15,U15C A91U,≤ -4.2
16,A16U C27G A89G G92U C149G,≤ -4.2
17,U15A U55A G59A,0.845
18,A16G C32A C38G U56A A60C C87A C123U A150C,≤ -4.2
19,U15G A30G C54A,≤ -4.2
20,C14U G34U A49C G59C C69A A91C U139A A147C,≤ -4.2
21,U15C G84A A106G G124A,-0.149
22,U15A G58A G86A U144G,0.552
23,A16U C54U,-1.53
24,C14U U15G A41C A49C C54G C75G C96U C123A A137U G141A G143C,≤ -4.2

row,Variant,polymerase ribozyme fitness (log ratio)
1,U15A C75G C108U,-4.16
2,U15C C54A C87U G94A A98U C125A,-3.98
3,U15C U53A A73G C76U G92C,-1.85
4,C14U A64G,-4.17
5,A17C C18G A26U A41C U45G A49U U55A G62A G92U C108U C118U,≤ -4.2
6,A16C G86C A110G,≤ -4.2
7,A16G A40G G86C,≤ -4.2
8,U15G C27A,-4.13
9,U15C A24G A39G G83A C99G,≤ -4.2
10,A16C C38U G50A C95G C116G,-4.14
11,U15G C35U A41C A115G U145G,-4.04
12,A16G A26U C35A C51G U61A C87G A120U C129G,≤ -4.2
13,A16G C35A,-3.53
14,A16G G128U,-3.4
15,A17C A40G,-1.63
16,U15C C27U U53A A122G,-1.39
17,A16G C38U U82A C96G,-1
18,C14U G50C A98U C108A,≤ -4.2
19,A16C A24U G46C C105G C108G,≤ -4.2
20,C14U C35U G84U C131U,-3.79
21,C14U U53A U56A,-2.46
22,C14U G50A G58C A121C,-3.27
23,U15G C38U U55A U56A C57G C85U A147C,-2.05
24,A17C A52G G81A G83A A98U,-0.507

row,Variant,polymerase ribozyme fitness (log ratio)
1,A16C A21U C69U G71A,-1.79
2,A17C A30G C95G,-3.8
3,A16C C96A U109C U148A,≤ -4.2
4,U15G U53A A91G,-2.83
5,A16G G34U A52U A60G G88U A91U G140C,-4.14
6,A16U U56A A60U C93U G141U,-3.72
7,A17C C27U C38A C85U,-0.305
8,C14U A30U U53G G58U G65C G74A,≤ -4.2
9,U15G G25C C51A C96G C149G,≤ -4.2
10,A16C A19U,-1.03
11,A16C C54G U77G C85U U135C,≤ -4.2
12,A16U A22C A30U U55A C57A C76G G81U G84C,≤ -4.2
13,A16U C32G G34A C85G U90G A97G U134G G141C,≤ -4.2
14,A17C G58U G128A A138U,-4.13
15,U15A A21G A49G C96G,-1.26
16,U15G G59A G83U C118G,-1.13
17,A16G A19G A23U A26C U44A U53A C87G C103A,-4.11
18,C14U A28U A52C G88U A91G C96U U134G G140U,≤ -4.2
19,C14U A150C,≤ -4.2
20,U15C C93U,-0.331
21,U15C U61A A89G A98G,-1.62
22,U15C U145G,0.506
23,A16C C27G U53A C54A G74A G94A,≤ -4.2
24,A17C C35U G86A A122G,-1.01

row,Variant,polymerase ribozyme fitness (log ratio)
1,A16G U33G C95G,≤ -4.2
2,A16G U56A,-1.7
3,U15A A20U,-0.122
4,A16G C57G C76A,-1.31
5,C14U G94A G136U,-3.85
6,A16C C57A G94A C116U G124A A142U,-3.92
7,A16C A52G U55A G94U A107G,≤ -4.2
8,A17C G34U C51U C57A G86A,-4.06
9,A16C G81A,-0.894
10,A16G A17C A21U A29G U55A C57G A91C C103U U145A,≤ -4.2
11,A16U A17G C85G,-4.18
12,U15C A41G U61G C99U,-2.24
13,U15G U53A,-0.774
14,A16U U31G A37G G83A C96A A106C,≤ -4.2
15,A16U C54A U101G A119U C149U,-4.08
16,A16U G46C G50C G67A G74C C118U U130A,-4.05
17,A16U A21G C32U G50C U151G,≤ -4.2
18,A17G A19C G80C G92A C116U G136C G140A,≤ -4.2
19,U15G U53A A60C G83A C85U,-3.78
20,A16G A97G U144G,-0.0952
21,A16G A91U C105G A115G,≤ -4.2
22,C14U C95U U101G C105U C125U A142U,≤ -4.2
23,A17C U53A G71C G83A A91U C93A C108U U127G,≤ -4.2

# Source: the RNAGym collection of RNA variant scans (doi:10.1073/pnas.2313332121)
